Positions count from the first letter of the chain named. Values belong to the binder of their own block, whether it stands above or below them.
Experiments:
human LRP6 [1] = target: T1, human LRP6 (human, UniProt O75581 20-1613); experiment: cell-based or functional assay
mouse LRP6 = target: T2, mouse LRP6 (mouse, UniProt O88572 20-1613); experiment: FACS on NIH 3T3 cells, endogenous mouse LRP6
T2 construct: whole, on cells; also called murine LRP6; endogenous LRP6 on NIH 3T3 cells
Experimental: (§1) Cross-species reactivity to murine and cynomologus LRP6 was determined on cells by FACS analysis. FACS staining was performed essentially as described above. Human U266 cells (no expression of LRP6) were used as a negative control.
(§2) To show cross-reactivity, cells expressing endogenous LRP6 of human (HEK293T/17) and mouse origin (NIH 3T3), or transiently transfected HEK293/T17 cells expressing cynomolgus LRP6, were treated and subjected to flow cytometry as described above.

human LRP6 [2] = target: T1, human LRP6; experiment: FACS on HEK293T/17 cells, endogenous human LRP6
Experimental: as §1, §2
Target sequence in this assay (O75581 20-1613): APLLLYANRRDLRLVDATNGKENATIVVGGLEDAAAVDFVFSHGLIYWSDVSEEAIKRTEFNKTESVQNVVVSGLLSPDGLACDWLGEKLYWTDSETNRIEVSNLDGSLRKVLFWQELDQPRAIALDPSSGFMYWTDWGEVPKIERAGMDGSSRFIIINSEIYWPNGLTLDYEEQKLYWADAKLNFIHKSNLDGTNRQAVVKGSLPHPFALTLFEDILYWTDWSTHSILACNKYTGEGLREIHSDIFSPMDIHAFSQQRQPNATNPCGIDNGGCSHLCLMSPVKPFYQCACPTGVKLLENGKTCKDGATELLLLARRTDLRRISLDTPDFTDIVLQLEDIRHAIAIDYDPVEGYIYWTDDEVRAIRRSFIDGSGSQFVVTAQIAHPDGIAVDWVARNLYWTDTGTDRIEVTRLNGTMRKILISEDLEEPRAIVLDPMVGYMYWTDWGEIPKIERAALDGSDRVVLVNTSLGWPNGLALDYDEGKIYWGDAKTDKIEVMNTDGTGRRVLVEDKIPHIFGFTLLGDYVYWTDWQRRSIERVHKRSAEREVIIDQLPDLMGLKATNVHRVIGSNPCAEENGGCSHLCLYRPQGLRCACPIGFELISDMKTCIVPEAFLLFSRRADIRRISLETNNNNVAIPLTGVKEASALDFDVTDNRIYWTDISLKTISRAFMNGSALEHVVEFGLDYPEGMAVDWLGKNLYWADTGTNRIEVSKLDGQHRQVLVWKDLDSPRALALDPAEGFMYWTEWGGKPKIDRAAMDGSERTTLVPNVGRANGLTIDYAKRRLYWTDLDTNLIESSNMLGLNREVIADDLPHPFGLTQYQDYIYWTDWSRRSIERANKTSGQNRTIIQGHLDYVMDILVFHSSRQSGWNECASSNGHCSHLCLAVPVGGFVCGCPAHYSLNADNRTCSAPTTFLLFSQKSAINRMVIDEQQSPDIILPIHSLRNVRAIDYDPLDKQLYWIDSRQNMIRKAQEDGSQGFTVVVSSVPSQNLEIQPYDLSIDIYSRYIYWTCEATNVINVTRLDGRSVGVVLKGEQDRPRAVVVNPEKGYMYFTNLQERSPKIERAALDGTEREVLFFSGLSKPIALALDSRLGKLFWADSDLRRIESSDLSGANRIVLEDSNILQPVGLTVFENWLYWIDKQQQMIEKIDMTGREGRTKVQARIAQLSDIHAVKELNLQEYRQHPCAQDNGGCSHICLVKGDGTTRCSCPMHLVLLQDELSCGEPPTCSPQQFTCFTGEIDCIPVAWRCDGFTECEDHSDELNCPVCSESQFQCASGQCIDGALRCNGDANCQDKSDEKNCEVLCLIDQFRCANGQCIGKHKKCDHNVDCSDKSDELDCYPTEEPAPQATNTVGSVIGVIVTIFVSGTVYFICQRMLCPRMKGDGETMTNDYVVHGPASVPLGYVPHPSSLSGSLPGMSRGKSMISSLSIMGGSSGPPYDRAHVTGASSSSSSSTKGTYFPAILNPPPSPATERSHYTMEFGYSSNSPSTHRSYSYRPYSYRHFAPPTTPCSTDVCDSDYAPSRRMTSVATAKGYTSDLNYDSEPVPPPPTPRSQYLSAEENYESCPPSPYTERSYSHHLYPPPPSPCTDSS

T2 sequence (O88572 20-1613): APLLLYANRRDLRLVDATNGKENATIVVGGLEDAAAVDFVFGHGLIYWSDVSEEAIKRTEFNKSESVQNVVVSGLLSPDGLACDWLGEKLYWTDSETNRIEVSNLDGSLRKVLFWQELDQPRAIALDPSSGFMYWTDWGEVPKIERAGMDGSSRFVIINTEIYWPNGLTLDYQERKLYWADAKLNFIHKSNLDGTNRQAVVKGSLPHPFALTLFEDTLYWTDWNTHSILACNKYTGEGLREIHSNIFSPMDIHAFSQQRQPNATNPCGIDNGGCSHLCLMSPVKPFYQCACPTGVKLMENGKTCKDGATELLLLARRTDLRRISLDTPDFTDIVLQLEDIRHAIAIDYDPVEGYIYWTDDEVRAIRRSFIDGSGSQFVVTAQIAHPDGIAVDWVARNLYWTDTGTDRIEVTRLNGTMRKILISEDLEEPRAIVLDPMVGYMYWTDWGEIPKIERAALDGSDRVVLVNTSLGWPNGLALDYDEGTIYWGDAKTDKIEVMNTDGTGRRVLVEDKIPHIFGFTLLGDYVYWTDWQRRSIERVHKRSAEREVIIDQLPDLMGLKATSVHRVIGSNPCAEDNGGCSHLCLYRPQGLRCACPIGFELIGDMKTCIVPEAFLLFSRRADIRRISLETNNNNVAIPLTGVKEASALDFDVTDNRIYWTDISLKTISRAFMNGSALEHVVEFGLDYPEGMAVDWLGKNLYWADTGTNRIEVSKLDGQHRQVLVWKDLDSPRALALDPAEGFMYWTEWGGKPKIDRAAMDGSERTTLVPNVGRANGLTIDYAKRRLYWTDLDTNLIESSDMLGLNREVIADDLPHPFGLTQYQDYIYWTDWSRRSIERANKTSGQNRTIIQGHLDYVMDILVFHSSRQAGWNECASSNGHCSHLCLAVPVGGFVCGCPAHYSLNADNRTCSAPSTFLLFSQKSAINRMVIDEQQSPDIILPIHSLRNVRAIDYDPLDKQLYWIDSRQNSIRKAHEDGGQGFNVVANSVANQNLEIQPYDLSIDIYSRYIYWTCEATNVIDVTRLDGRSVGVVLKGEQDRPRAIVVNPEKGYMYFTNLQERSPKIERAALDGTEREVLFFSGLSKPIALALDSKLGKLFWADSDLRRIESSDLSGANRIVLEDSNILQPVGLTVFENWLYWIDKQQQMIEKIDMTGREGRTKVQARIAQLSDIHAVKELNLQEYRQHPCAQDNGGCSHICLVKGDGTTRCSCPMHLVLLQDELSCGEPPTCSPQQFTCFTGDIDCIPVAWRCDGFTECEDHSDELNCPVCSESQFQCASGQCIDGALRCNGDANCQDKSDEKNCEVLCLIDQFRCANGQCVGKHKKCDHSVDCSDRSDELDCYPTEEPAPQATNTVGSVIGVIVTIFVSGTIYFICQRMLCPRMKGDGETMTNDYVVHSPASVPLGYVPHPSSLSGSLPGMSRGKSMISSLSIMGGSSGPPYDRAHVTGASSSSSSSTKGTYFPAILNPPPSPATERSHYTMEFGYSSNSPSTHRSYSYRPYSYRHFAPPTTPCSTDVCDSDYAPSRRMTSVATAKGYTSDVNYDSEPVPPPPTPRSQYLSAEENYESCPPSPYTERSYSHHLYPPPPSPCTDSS

IC50 by STF assay for Wnt3a inhibition (human LRP6 [1]): 1.48 nM
B1: scFv MOR06475 (scFv, V domains shown)
VH: QVQLKESGPALVKPTQTLTLTCTFSGFSLSNRGGGVGWIRQPPGKALEWLAWIDWDDDKSYSTSLKTRLTISKDTSKNQVVLTMTNMDPVDTATYYCARMHLPLVFDSWGQGTLVTVSS
VL: DIVLTQSPATLSLSPGERATLSCRASQFIGSRYLAWYQQKPGQAPRLLIYGASNRATGVPARFSGSGSGTDFTLTISSLEPEDFATYYCQQYYDYPQTFGQGTKVEIK

EC50 (mouse LRP6): 0.08 nM
EC50 (human LRP6 [2]): 0.36 nM
B2: MOR08193 Fab (Fab, V domains shown)
VH: B1 VH
VL: DIVLTQSPATLSLSPGERATLSCRASQFIGSRYLAWYQQKPGQAPRLLIYGASNRATGVPARFSGSGSGTDFTLTISSLEPEDFAVYYCQQYWSIPITFGQGTKVEIKR
notes: also called Propeller 3 anti-LRP6 Fab MOR08193

EC50 (mouse LRP6): 0.12 nM
EC50 (human LRP6 [2]): 0.28 nM
B3: MOR08168 Fab (Fab, V domains shown)
VH: QVQLVESGGGLVQPGGSLRLSCAASGFTFSDYVINWVRQAPGKGLEWVSGISWSGVNTHYADSVKGRFTISRDNSKNTLYLQMNSLRAEDTAVYYCARLGATANNIRYKFMDVWGQGTLVTVSS
VL: DIELTQPPSVSVAPGQTARISCSGDSLRNKVYWYQQKPGQAPVLVIYKNNRPSGIPERFSGSNSGNTATLTISGTQAEDEADYYCQSYDGQKSLVFGGGTKLTVL
notes: HuCAL Fab expressed in E. coli from pMORPH X9/X11 FH vectors and purified by Ni-NTA; also called Propeller 1 anti-LRP6 Fab MOR08168

EC50 (mouse LRP6): 0.06 nM
EC50 (human LRP6 [2]): 0.09 nM
B4: MOR08545 Fab (Fab, V domains shown)
VH: QVQLVESGGGLVQPGGSLRLSCAASGFTFSVNGMHWVRQAPGKGLEWVSVIDGMGHTYYADSVKGRFTISRDNSKNTLYLQMNSLRAEDTAVYYCARYDYIKYGAFDPWGQGTLVTVSS
VL: DIELTQPPSVSVAPGQTARISCSGDNIGSKYVHWYQQKPGQAPVLVIYGDSNRPSGIPERFSGSNSGNTATLTISGTQAEDEADYYCTRTSTPISGVFGGGTKLTVLG
notes: also called Propeller 1 anti-LRP6 Fab MOR08545

EC50 (human LRP6 [2]): 0.14 nM
B5: MOR06706 Fab (Fab, V domains shown)
VH: QVQLVESGGGLVQPGGSLRLSCAASGFTFSDYAIHWVRQAPGKGLEWVSGISYSGSSTHYADSVKGRFTISRDNSKNTLYLQMNSLRAEDTAVYYCARGSHGNIMAKRYFDFWGQGTLVTVSS
VL: DIELTQPPSVSVAPGQTARISCSGDNIRKKYVYWYQQKPGQAPVLVIYEDSKRPSGIPERFSGSNSGNTATLTISGTQAEDEADYYCSTADSGINNGVFGGGTKLTVL
notes: also called Propeller 1 anti-LRP6 Fab MOR06706

EC50 (mouse LRP6): 0.46 nM
EC50 (human LRP6 [2]): 0.74 nM
B6: MOR08473 Fab (Fab, V domains shown)
VH: QVQLVESGGGLVQPGGSLRLSCAASGFTFSSYGMSWVRQAPGKGLEWVSNISNDGHYTYYADSVKGRFTISRDNSKNTLYLQMNSLRAEDTAVYYCARFQASYLDIMDYWGQGTLVTVSS
VL: DIELTQPPSVSVAPGQSITISCSGDNIGSKYVHWYQQKPGQAPVLVIYNDSNRPSGIPERFSGSNSGNTATLTISGTQAEDEADYYCQAWGDNGTRVFGGGTKLTVLG
notes: also called Propeller 3 anti-LRP6 Fab MOR08473

IC50 by STF assay for Wnt1 inhibition (human LRP6 [1]): 5.56 nM
B7: scFv08168-D4 (scFv, not shown: small tags and cut ends)
scFv: QVQLVESGGGLVQPGGSLRLSCAASGFTFSDYVMNWVRQAPGKGLEWVSSISWSGVNTHYADSVKGRFTISRDNSKNTLYLQMNSLRAEDTAVYYCARLGATANNIRYKFMDVWGQGTLVTVSSGGGGSGGGGSGGGGSDIELTQPPSVSVAPGQTARISCSGDSLRNKVYWYQQKPGQAPVLVIYKNNRPSGIPERFSGSNSGNTATLTISGTQAEDEADYYCQSYDGQKSLVFGGGTKLTVL

IC50 by STF assay for Wnt1 inhibition (human LRP6 [1]): 2.59 nM
B8: scFv08168-D2 (scFv, not shown: small tags and cut ends)
scFv: B7 scFv with M34F, S49A, S50G

— patent US20130058934A1 (Novartis, published 2013)
